{"source": "patent US20070254850A1", "target": "Fas on primary mouse hepatocytes (mouse) (UniProt P25446)", "sequence (P25446 22-327)": "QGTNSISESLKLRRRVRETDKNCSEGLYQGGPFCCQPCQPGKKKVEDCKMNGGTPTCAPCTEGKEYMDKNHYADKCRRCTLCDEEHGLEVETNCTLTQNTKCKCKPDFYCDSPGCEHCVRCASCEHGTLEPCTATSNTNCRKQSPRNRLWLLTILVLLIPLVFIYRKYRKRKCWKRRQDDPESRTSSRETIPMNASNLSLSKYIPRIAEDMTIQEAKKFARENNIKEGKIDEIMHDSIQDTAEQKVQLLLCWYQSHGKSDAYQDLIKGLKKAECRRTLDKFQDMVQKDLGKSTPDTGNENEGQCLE", "test": "cell-based or functional assay"}
{"substance": "agonistic anti-Fas antibody (Jo2)", "values": [{"measurement": "TUNEL-stained cells, hepatocytes from Fas (sequence1)-siRNA treated mice (Fas expression silenced), Jo2 500 ng/mL for 24 hours", "value": 7.9, "unit": "%"}, {"measurement": "apoptotic cells by FITC-TUNEL staining, hepatocytes from untreated or mock-treated mice, Jo2 500 ng/mL for 24 hours", "value": 87.8, "unit": "%"}]}
